In data set [1] the target is maltose binding protein (MBP).

The values that follow come from US20040126784.

Sequence of p53, P04637 (P04637 whole entry, looked up): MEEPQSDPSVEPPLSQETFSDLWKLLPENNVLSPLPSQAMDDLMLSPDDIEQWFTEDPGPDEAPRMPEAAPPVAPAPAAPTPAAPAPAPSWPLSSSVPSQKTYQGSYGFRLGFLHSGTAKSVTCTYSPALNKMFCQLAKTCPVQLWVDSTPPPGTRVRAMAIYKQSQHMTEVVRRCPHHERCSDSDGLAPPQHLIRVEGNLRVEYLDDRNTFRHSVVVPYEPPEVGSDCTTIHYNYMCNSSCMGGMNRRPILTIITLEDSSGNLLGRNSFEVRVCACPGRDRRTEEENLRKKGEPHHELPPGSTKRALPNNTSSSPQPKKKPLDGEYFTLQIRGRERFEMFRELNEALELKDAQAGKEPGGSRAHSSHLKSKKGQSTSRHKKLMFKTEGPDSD

B1: GST-CNK (wild type CNK fused to GST, produced in E. coli) (protein)
chain: MLAGLPTSDPGRLITDPRSGRTYLKGRLLGKGGFARCYEATDTETGSAYAVKVIPQSRVAKPHQREKILNEIELHRDLQHRHIVRFSHHFEDADNIYIFLELCSRKSLAHIWKARHTLLEPEVRYYLRQILSGLKYLHQRGILHRDLKLGNFFITENMELKVGDFGLAARLEPPEQRKKTICGTPNYVAPEVLLRQGHGPEADVWSLGCVMYTLLCGSPPFETADLKETYRCIKQVHYTLPASLSLPARQLLAAILRASPRDRPSIDQILRHDFFTKGYTPDRLPISSCVTVPDLTPPNPARSLFAKVTKSLFGRKKKSKNHAQERDEVSGLVSGLMRTSVGHQDARPEAPAASGPAPVSLVETAPEDSSPRGTLASSGDGFEEGLTVATVVESALCALRNCIAFMPPAEQNPAPLAQPEPLVWVSKWVDYSNKFGFGYQLSSRRVAVLFNDGTHMALSANRKTVHYNPTSTKHFSFSVGAVPRALQPQLGILRYFASYMEQHLMKGGDLPSVEEVEVPAPPLLLQWVKTDQALLMLFSDGTVQVNFYGDHTKLILSGWEPLLVTFVARNRSACTYLASHLRQLGCSPDLRQRLRYALRLLRDRSPA
With B1, the “kinase activity (32P-ATP kinase reaction)” value in the data set with p53, P04637 was “Wild type GST-CNK phosphorylated p53, maltose binding protein (MBP) and also exhibited autophosphorylation activity”; in data set [1] it was “Wild type GST-CNK phosphorylated p53, maltose binding protein (MBP) and also exhibited autophosphorylation activity”.

B2: GST-CNK D146A mutant (protein)
chain: MLAGLPTSDPGRLITDPRSGRTYLKGRLLGKGGFARCYEATDTETGSAYAVKVIPQSRVAKPHQREKILNEIELHRDLQHRHIVRFSHHFEDADNIYIFLELCSRKSLAHIWKARHTLLEPEVRYYLRQILSGLKYLHQRGILHRALKLGNFFITENMELKVGDFGLAARLEPPEQRKKTICGTPNYVAPEVLLRQGHGPEADVWSLGCVMYTLLCGSPPFETADLKETYRCIKQVHYTLPASLSLPARQLLAAILRASPRDRPSIDQILRHDFFTKGYTPDRLPISSCVTVPDLTPPNPARSLFAKVTKSLFGRKKKSKNHAQERDEVSGLVSGLMRTSVGHQDARPEAPAASGPAPVSLVETAPEDSSPRGTLASSGDGFEEGLTVATVVESALCALRNCIAFMPPAEQNPAPLAQPEPLVWVSKWVDYSNKFGFGYQLSSRRVAVLFNDGTHMALSANRKTVHYNPTSTKHFSFSVGAVPRALQPQLGILRYFASYMEQHLMKGGDLPSVEEVEVPAPPLLLQWVKTDQALLMLFSDGTVQVNFYGDHTKLILSGWEPLLVTFVARNRSACTYLASHLRQLGCSPDLRQRLRYALRLLRDRSPA
Take B2: the “kinase activity (32P-ATP kinase reaction)” value is recorded as “The GST-CNK D146A mutant did not exhibit kinase activity” with p53, P04637 and “The GST-CNK D146A mutant did not exhibit kinase activity” in data set [1].
